The target of the experiment is the microbial proteins (competition ELISA with heparin, data not shown). In words: ELISA; data not shown; immobilised microbial proteins incubated with vitronectin (5 μg/ml) that was pre-incubated with heparin (10 μM).

In turn, “vitronectin purified from human plasma (natural protein)” displayed a percent inhibition by heparin (10 μM) of 68 to 89%.

The values are drawn from PMC4725753.
